According to patent publication US20120237442A1:

Target: CH1-AD1-Fab-h679
Assay: equilibrium gel filtration analysis of the binary complex (DDD1 dimer docking to AD1); complex also seen by SE-HPLC

Sequence of CH1-AD1-Fab-h679 (heavy, as listed by the source): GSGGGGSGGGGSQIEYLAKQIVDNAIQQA

CH1-DDD1-Fab-hMN-14 was tested, and the Kd was 8 nM.
